Experimental data taken from patent US20150141489.

Target: endogenous p38α, Q16539
Sequence (Q16539 2-360): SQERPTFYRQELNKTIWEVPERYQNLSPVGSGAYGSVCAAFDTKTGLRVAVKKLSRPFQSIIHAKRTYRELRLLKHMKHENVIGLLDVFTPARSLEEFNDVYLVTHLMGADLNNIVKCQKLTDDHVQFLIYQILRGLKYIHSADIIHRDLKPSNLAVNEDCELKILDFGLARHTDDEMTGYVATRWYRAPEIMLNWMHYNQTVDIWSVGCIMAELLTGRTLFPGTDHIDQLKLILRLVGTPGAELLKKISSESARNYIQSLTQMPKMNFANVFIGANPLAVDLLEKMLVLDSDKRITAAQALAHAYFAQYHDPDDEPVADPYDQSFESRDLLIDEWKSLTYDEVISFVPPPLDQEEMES

Protein	p38-MAPK phosphorylation (Western blot)	p38 or MK2 phosphorylation (Western blot)
T7-tagged human Mnk2a (protein) MVQKKPAELQGFHRSFKGQNPFELAFSLDQPDHGDSDFGLQCSARPDMPASQPIDIPDAKKRGKKKKRGRATDSFSGRFEDVYQLQEDVLGEGAHARVQTCINLITSQEYAVKIIEKQPGHIRSRVFREVEMLYQCQGHRNVLELIEFFEEEDRFYLVFEKMRGGSILSHIHKRRHFNELEASVVVQDVASALDFLHNKGIAHRDLKPENILCEHPNQVSPVKICDFDLGSGIKLNGDCSPISTPELLTPCGSAEYMAPEVVEAFSEEASIYDKRCDLWSLGVILYILLSGYPPFVGRCGSDCGWDRGEACPACQNMLFESIQEGKYEFPDKDWAHISCAAKDLISKLLVRDAKQRLSAAQVLQHPWVQGCAPENTLPTPMVLQRNSCAKDLTSFAAEAIAMNRQLAQHDEDLAEEEAAGQGQPVLVRATSRCLQLSPPSQSKLAQRRQRASLSSAPVVLVGDHA	only cells expressing Mnk2a showed increased p38-MAPK phosphorylation, indicating that p38-MAPK is activated	
Mnk2a-kinase dead (Mnk2aKD) (protein) MVQKKPAELQGFHRSFKGQNPFELAFSLDQPDHGDSDFGLQCSARPDMPASQPIDIPDAKKRGKKKKRGRATDSFSGRFEDVYQLQEDVLGEGAHARVQTCINLITSQEYAVAIIEKQPGHIRSRVFREVEMLYQCQGHRNVLELIEFFEEEDRFYLVFEKMRGGSILSHIHKRRHFNELEASVVVQDVASALDFLHNKGIAHRDLKPENILCEHPNQVSPVKICDFDLGSGIKLNGDCSPISTPELLTPCGSAEYMAPEVVEAFSEEASIYDKRCDLWSLGVILYILLSGYPPFVGRCGSDCGWDRGEACPACQNMLFESIQEGKYEFPDKDWAHISCAAKDLISKLLVRDAKQRLSAAQVLQHPWVQGCAPENTLPTPMVLQRNSCAKDLTSFAAEAIAMNRQLAQHDEDLAEEEAAGQGQPVLVRATSRCLQLSPPSQSKLAQRRQRASLSSAPVVLVGDHA		it did not cause activation of p38, as measured by p38 or MK2 phosphorylation
